The values below come from patent publication US20240360245A1 (Daiichi Sankyo, published 2024).

For experiment [1], the target named is human GARP expressed on cells (GARP-transfected HEK-293T cells; endogenous on L428 cells and activated Treg) (human) (UniProt Q14392). Nature of the experiment: flow cytometry on CD3/CD28 bead-activated human PBMC gated on CD4-positive cells, FITC-labeled anti-IgG secondary antibody against PE anti-Foxp3. (A flow cytometer gives signals particle by particle.)

For experiment [2] the target is unchanged. Nature of the experiment: flow cytometry on anti-CD3/anti-CD28 activated human PBMC, Alexa Fluor 647-labeled antibody against PE anti-Foxp3; the panel Antibody not-added prints 0.18.
The target is the same in experiment [3]. Nature of the experiment: flow cytometry on anti-CD3/anti-CD28 activated human PBMC, Alexa Fluor 647-labeled antibody against PE anti-Foxp3; the panel Antibody not-added prints 0.13.
Experiment [4] has as its target T1, recombinant human GARP (R&D Systems, catalog number 6055-LR) (human, UniProt Q14392 20-627).
T1 construct: Bought soluble protein; In the phage panning and Fab screening it was in part biotinylated; also called antigen
T1 sequence: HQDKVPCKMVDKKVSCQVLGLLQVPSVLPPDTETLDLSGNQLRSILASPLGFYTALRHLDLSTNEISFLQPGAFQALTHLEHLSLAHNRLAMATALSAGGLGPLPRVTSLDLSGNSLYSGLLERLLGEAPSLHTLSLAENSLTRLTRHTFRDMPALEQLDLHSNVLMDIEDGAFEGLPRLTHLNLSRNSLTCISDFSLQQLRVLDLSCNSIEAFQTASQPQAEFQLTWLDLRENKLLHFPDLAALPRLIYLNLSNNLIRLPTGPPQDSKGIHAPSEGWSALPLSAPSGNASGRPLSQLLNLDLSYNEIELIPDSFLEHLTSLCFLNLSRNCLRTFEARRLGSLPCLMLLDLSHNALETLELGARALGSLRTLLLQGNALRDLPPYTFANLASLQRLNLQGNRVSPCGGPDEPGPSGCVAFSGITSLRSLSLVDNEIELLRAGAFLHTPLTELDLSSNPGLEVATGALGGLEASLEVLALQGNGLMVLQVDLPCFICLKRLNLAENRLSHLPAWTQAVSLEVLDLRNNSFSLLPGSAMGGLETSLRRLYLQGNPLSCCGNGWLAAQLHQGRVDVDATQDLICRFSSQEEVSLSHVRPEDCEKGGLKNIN
In words: SPR (Biacore T200), antibody captured on Protein A, recombinant human GARP as analyte, 1:1 fit. The procedure: The dissociation constant between the c151D or c198D produced in Example 6)-4 and human GARP was evaluated by using Biacore T200 (GE Healthcare Bioscience), according to a capture method, which comprises capturing the antibody as a ligand with the immobilized Protein A and then analyzing the dissociation constant using an antigen (recombinant human GARP: R&D Systems) as an analyte. HBS-EP+ (manufactured by GE Healthcare Bioscience) was used as a running buffer, and a Protein A Sensor Chip (manufactured by GE Healthcare Bioscience) was used as a sensor chip.
The human chimeric antibody (1 μg/mL) was added onto the chip at a rate of 10 μL/min for 20 seconds, and a dilution series solution (8 to 128 nM) of the antigen was then added at a flow rate of 30 μl/min for 120 seconds. Subsequently, the dissociation was monitored for 480 seconds. As a regeneration solution, Glycine 1.5 (manufactured by GE Healthcare Bioscience) was added at a flow rate of 20 μl/min for 30 seconds.
1:1 Fitting models were used in data analysis, and the association rate constant ka, the dissociation rate constant kd, and the dissociation constant (KD; KD=kd/ka) were calculated.
Background: Surface plasmon resonance follows binding to a sensor surface in real time, without labels.

The target in experiment [5] is T1, recombinant human GARP (R&D Systems, …). Nature of the experiment: ELISA on plate-coated human GARP (1 ug/mL), 50 nM antibody, HRP anti-human Fc, chemiluminescence. The procedure: The plate was washed with the ELISA buffer three times. […] On the other hand, 100 μL of HRP-labeled anti-mouse Fc antibody (R&D Systems), which had been 5000-fold diluted with PBS, was added to the wells treated with mouse anti-GARP antibody and mouse IgG. The plate was incubated at room temperature for 1 hour with mixing.

For experiment [6] the target is unchanged. In words: SPR (Biacore T200), antibody captured on Protein A, GARP antigen as analyte, 1:1 fit. The protocol: The dissociation constant between each of the humanized anti-human GARP antibodies h151D-H1L1, h151D-H4L4 and h198D-H3L4 produced in Example 7)-10 and GARP was evaluated by using Biacore T200 (GE Healthcare Bioscience), according to a capture method, which comprises capturing the antibody as a ligand by the immobilized Protein A and then analyzing the dissociation constant using an antigen as an analyte. HBS-EP+ (manufactured by GE Healthcare Bioscience) was used as a running buffer, and a Protein A Sensor Chip (manufactured by GE Healthcare Bioscience) was used as a sensor chip.
The human chimeric antibody (1 μg/mL) was added onto the chip at a rate of 10 μL/min for 20 seconds, and a dilution series solution (8 to 128 nM) of the antigen was added at a flow rate of 30 μl/min for 120 seconds. Subsequently, the dissociation was monitored for 480 seconds. As a regeneration solution, Glycine 1.5 (manufactured by GE Healthcare Bioscience) was added at a flow rate of 20 μl/min for 30 seconds.
1:1 Fitting model was used in data analysis, and the association rate constant ka, the dissociation rate constant kd, and the dissociation constant (KD; KD=kd/ka) were calculated.

Experiment [7] deals with T2, human GARP expressed on cells (GARP-transfected HEK-293T cells; endogenous on L428 cells and activated Treg) (human, UniProt Q14392 20-662).
T2 construct: The transfected cells carry a human GARP cDNA clone (Origene) in pcDNA3.1(+); also called hGARP; endogenously expressed GARP
T2 sequence: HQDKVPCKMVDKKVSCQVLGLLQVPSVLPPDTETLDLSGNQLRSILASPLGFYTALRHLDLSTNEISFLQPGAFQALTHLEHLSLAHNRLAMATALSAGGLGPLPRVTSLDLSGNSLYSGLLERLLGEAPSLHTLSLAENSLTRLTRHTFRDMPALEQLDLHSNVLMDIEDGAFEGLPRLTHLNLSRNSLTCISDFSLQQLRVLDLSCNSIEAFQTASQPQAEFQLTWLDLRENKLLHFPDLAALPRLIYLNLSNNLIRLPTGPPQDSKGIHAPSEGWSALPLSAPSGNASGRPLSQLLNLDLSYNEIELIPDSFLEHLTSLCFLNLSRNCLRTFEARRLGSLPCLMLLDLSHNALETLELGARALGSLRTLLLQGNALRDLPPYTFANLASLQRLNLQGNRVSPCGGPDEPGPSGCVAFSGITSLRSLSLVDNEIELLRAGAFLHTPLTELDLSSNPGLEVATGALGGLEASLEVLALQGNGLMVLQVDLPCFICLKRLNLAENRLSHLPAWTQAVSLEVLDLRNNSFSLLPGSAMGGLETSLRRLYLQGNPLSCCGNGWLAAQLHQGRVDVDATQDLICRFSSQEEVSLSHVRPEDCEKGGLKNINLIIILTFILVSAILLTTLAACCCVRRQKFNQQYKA
In words: flow cytometry on CD3/CD28 bead-activated human PBMC gated on CD4-positive cells, FITC-labeled anti-IgG secondary antibody against PE anti-Foxp3.

human IgG (antibody): in experiment [1], the percent of CD4-positive cells in Q2 (GARP-positive, Foxp3-positive) amounted to 0.039% and the percent of CD4-positive cells in Q3 (GARP-positive, Foxp3-negative) is 0.242%.
On to “Alexa Fluor 647-labeled anti-GARP antibody (G14D9, eBioscience)”, for which, in experiment [2], the percent of cells in the lower right quadrant (GARP-positive, Foxp3-negative) came to 0.81. In experiment [3], this molecule had a percent of cells in the upper right quadrant (GARP-positive, Foxp3-positive) of 4.19.

B1: human chimeric 151D antibody c151D (antibody, human IgG1, V domains shown)
VH: EVQLVESGGGLVQPGRSKKLSCSASGFTFSNYYMAWVRQAPTQGLEWVASIGTVGGNTYYRDSVKGRFTISRDDAKSTLYLQMDSLRSEDTATYYCAREDYGGFPHWGQGVMVTVSS
VL: NIVMTQSPTSMFISVGDRVTMNCKASQNVGTNVDWYQQKTGQSPKLLIYGASNRYTGVPDRFTGSGSGTDFTLTISNMQAEDLAVYDCLQYKYNPYTFGTGTKLELNR
As for B1, the Kd in experiment [4] came out at 0.47 nM.

B2: human chimeric 198D antibody c198D (antibody, human IgG1, V domains shown)
VH: QVQLRESGPGLVQPSQTLSLTCTVSGFSLTSFHVSWVRQPPEKGLEWIATISSGGGTYYNSALKSRLSISRDTSKSQVFLKMSTLQTEDTAMYFCARISGWGHYYVMDVWGQGASVTVSS
VL: DIQMTQSPASLSGSLGETVTIQCQASEDIYSGLAWYQQKPGKSPQLLIYGAGSLQDGVPSRFSGGGSGTHYSLKISSMQTEDEGVYFCQQGLKFPLTFGSGTKLEIKR
Consider B2, for which, in experiment [4], the Kd is 0.17 nM.

B3: 110F antibody (antibody, human IgG1, lambda, V domains shown)
VH: EVQLLESGGGLVQPGGSLRLSCAASGFTFSSYGMHWVRQAPGKGLEWVAGISWNSAITVYADSVKGRFTISRDNSKNTLYLQMNSLRAEDTAVYYCAKDAGGRYSGSYYFDYWGQGTLVTVSS
VL: QSVLTQPPSASGTPGQRVTISCTGSSSNIGAGYDVHWYQQLPGTAPKLLIYGNSNRPSGVPDRFSGSKSGTSASLAISGLRSEDEADYYCQSYDRSLNWVFGGGTKLTVLG
With B3, the binding result in experiment [5] was “binds”.

B4: humanized anti-human GARP antibody h198D-H3L4 (antibody, human IgG1, kappa, V domains shown)
VH: EVQLVESGGGLVKPSQTLSLTCTVSGFSLTSFHVSWVRQPPGKGLEWIATISSGGGTYYNPSLKSRVTISRDTSKNQVSLKLSSVTAADTAVYYCARISGWGHYYVMDVWGQGTLVTVSS
VL: DIQMTQSPSSLSASVGDRVTITCQASEDIYSGLAWYQQKPGKSPKLLIYGAGSLQDGVPSRFSGSGSGTHYTLTISSLQPEDFATYFCQQGLKFPLTFGQGTKVEIKR
notes: Produced in Potelligent CHOK1SV cells; also called MACA-1983a
B4: the Kd in experiment [6] was found to be 0.088 nM. For the same molecule, in experiment [7], the “percent of CD4-positive cells in Q2 (GARP-positive, Foxp3-positive)” value (shortened to “percent of CD4-positive cells in Q2”) is 3.47% and the “percent of CD4-positive cells in Q3 (GARP-positive, Foxp3-negative)” value (“percent of CD4-positive cells in Q3” for short) is 3.25%.

B5: humanized anti-human GARP antibody h151D-H1L1 (antibody, human IgG1, kappa, V domains shown)
VH: EVQLVESGGGLVQPGGSLRLSCAASGFTFSNYYMAWVRQAPGKGLEWVSSIGTVGGNTYYADSVKGRFTISRDDSKNTLYLQMNSLRAEDTAVYYCAREDYGGFPHWGQGTLVTVSS
VL: NIVMTQSPDSLAVSLGERATINCKASQNVGTNVDWYQQKPGQSPKLLIYGASNRYTGVPDRFSGSGSGTDFTLTISSLQAEDVAVYDCLQYKYNPYTFGQGTKVEIKR
notes: Produced in Potelligent CHOK1SV cells; also called MACA-1511a
Regarding B5, the dissociation constant (Kd) in experiment [6] came to 1.8 nM. In experiment [7], the “percent of CD4-positive cells in Q2” value was found to be 3.54% and the “percent of CD4-positive cells in Q3” value worked out at 2.41%.

B6: humanized anti-human GARP antibody h151D-H4L4 (antibody, human IgG1, kappa, V domains shown)
VH: EVQLVESGGGLVQPGGSLRLSCAASGFTFSNYYMAWVRQAPGKGLEWVASIGTVGGNTYYRDSVKGRFTISRDDSKSTLYLQMNSLRAEDTAVYYCAREDYGGFPHWGQGTLVTVSS
VL: NIVMTQSPSSLSASVGDRVTINCKASQNVGTNVDWYQQKPGKSPKLLIYGASNRYTGVPDRFSGSGSGTDFTLTISSLQPEDFATYDCLQYKYNPYTFGQGTKVEIKR
notes: Produced in Potelligent CHOK1SV cells; also called MACA-1514a
As for B6, in experiment [6], the Kd was determined as 1.2 nM. Further, in experiment [7], the “percent of CD4-positive cells in Q2” value worked out at 3.38% and the “percent of CD4-positive cells in Q3” value came out at 2.59%.

The Kd is a measure of binding affinity in units of concentration.
